Assay results from patent US20260242478A1 (published 2026).
Where no end group is shown, it is not given here.

B1: Phage-504 (peptide, not shown: large carriers)
peptide: YCEGHLPQYMWKCL
notes: Clonal phage supernatant of the Peptide-87 optimisation library
B2: Phage-512 (peptide, not shown: large carriers)
peptide: YCEGHLPQYMQKCL
modifications: cysteine pairing not given here; also: displayed on phage as fusion to pIII, linker, pIII sequence and order not given here
notes: as for B1
B3: Phage-513 (peptide)
peptide: YCDGHAPEYMMKCL
notes: tested as crude clonal phage supernatant
B4: Phage-515 (peptide)
peptide: YCEGHAAEYMAKCL
notes: as for B3
B5: Phage-516 (peptide)
peptide: YCDGHLPEYLAKCL
notes: as for B3
B6: Phage-521 (peptide)
peptide: YCDGHLPEYMAKCL
notes: as for B3
B7: Phage-509 (peptide, not shown: large carriers)
peptide: YCEGHLPEYMAKCL
modifications: cysteine pairing not given here; also: displayed on phage as fusion to pIII, linker, pIII sequence and order not given here
notes: as for B1
B8: Phage-510 (peptide, not shown: large carriers)
peptide: YCEGHLPEYMFKCL
modifications: cysteine pairing not given here; also: displayed on phage as fusion to pIII, linker, pIII sequence and order not given here
notes: as for B1
B9: Phage-503 (peptide, not shown: large carriers)
peptide: YCDGHLPEYMEKCL
notes: as for B1
B10: Phage-505 (peptide, not shown: large carriers)
peptide: YCDGHLPEYMNKCL
notes: as for B1
B11: Phage-500 (peptide, not shown: large carriers)
peptide: YCDGHLPQYMEKCL
notes: as for B1
B12: Phage-501 (peptide, not shown: large carriers)
peptide: YCAGHAPEYMEKCL
notes: as for B1
B13: Phage-523 (peptide)
peptide: YCDGHLPEYQEKCL
notes: as for B3
B14: Phage-506 (peptide, not shown: large carriers)
peptide: YCAGHLPEYMDKCL
notes: as for B1
B15: Phage-525 (peptide)
peptide: YCDGHLPIYMSQCL
notes: as for B3
B16: Phage-524 (peptide)
peptide: YCAGHLPQYMSKCL
notes: as for B3
B17: Phage-518 (peptide)
peptide: YCDGHLPEYMSKCM
notes: as for B3
B18: Phage-511 (peptide, not shown: large carriers)
peptide: YCDGHLPQYMAQCL
modifications: cysteine pairing not given here; also: displayed on phage as fusion to pIII, linker, pIII sequence and order not given here
notes: as for B1
B19: Phage-520 (peptide)
peptide: YCMGHAPEYMAKCL
notes: as for B3
B20: Phage-519 (peptide)
peptide: YCEGHTAEYMQKCL
notes: as for B3
B21: Phage-517 (peptide)
peptide: YCAGHMPEYMAKCL
notes: as for B3
B22: Phage-502 (peptide, not shown: large carriers)
peptide: YCDGHSPEYMWKCL
notes: as for B1
B23: Phage-507 (peptide, not shown: large carriers)
peptide: YCDGHSAEHMAKCL
notes: as for B1
B24: Phage-514 (peptide)
peptide: YCEGHLPEYMWKCL
notes: as for B3
B25: Phage-522 (peptide)
peptide: YCDGHSWEYIGKCL
notes: as for B3
B26: Phage-508 (peptide, not shown: large carriers)
peptide: YCAGHLPQYMAKCL
notes: as for B1

Columns and labels:
[1] = molecular target: T1, anti-CD28 Fab (SEQ ID NOs: 696, 697); assay: phage ELISA; biotinylated anti-CD28 Fab on neutravidin plate, clonal phage supernatant, anti-M13 HRP detection;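 note: crude supernatants of single phage clones picked after panning were screened for binding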
T1 construct: In the phage ELISA the Fab was biotinylated and captured on neutravidin coated plates

[2] = molecular target: T1, anti-CD28 Fab (SEQ ID NOs: 696, 697); assay: phage ELISA; biotinylated anti-CD28 Fab on neutravidin plate, wells pre-incubated with CD28 antigen as competitor, anti-M13 HRP detection
Procedure: (§1) After panning, phage infected bacteria were plated out and colonies picked into 96 well blocks. Clonal phage was then amplified and separated from bacterial cells via centrifugation.
(§2) Clonal phage were harvested as crude supematants and screened via standard ELISAs. […] Prior to the addition of clonal phage, wells were incubated with blocking buffer and CD28 antigen or blocking buffer alone. Without washing or aspirating, clonal phage supematants were then added to the wells and incubated for a short time. Wells were then washed followed by detection of bound phage using a horse radish conjugated anti-M13 antibody. Clonal phage of interest were then sent for sequence analysis.

[3] = molecular target: Anti-CD28 Fab (SEQ ID NOs: 696, 697); assay: phage binding ELISA on captured anti-CD28 Fab pre-incubated with CD28 antigen as competitor
Target sequence in this assay (VH, as listed by the source, chain 1 of 2): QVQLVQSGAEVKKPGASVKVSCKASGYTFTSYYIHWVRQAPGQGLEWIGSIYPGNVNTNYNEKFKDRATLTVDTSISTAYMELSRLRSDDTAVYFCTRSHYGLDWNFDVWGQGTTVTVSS
Target sequence in this assay (VL, as listed by the source, chain 2 of 2): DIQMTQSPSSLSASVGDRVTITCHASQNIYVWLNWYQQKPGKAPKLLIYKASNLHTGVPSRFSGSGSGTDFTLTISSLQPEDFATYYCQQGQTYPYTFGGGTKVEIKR
Procedure: as §1, §2

[4] = molecular target: Anti-CD28 Fab (SEQ ID NOs: 696, 697); assay: phage binding ELISA; biotinylated anti-CD28 Fab captured on neutravidin plate, clonal phage supernatant, anti-M13 HRP detection
Target sequence in this assay (VH, as listed by the source, chain 1 of 2): as the sequence (VH, as listed by the source, chain 1 of 2) above
Target sequence in this assay (VL, as listed by the source, chain 2 of 2): as the sequence (VL, as listed by the source, chain 2 of 2) above
Procedure: as §1, §2

[5] = molecular target: T2, Anti-CD28 Fab (SEQ ID NOs: 696, 697); assay: phage ELISA; biotinylated anti-CD28 Fab on neutravidin plate, clonal phage supernatant, anti-M13 HRP
T2 construct: Biotinylated and captured on neutravidin coated plates in the phage ELISA
T2 sequence (VH, as listed by the source, chain 1 of 2): as the sequence (VH, as listed by the source, chain 1 of 2) above
T2 sequence (VL, as listed by the source, chain 2 of 2): as the sequence (VL, as listed by the source, chain 2 of 2) above

[6] = molecular target: T2, Anti-CD28 Fab (SEQ ID NOs: 696, 697); assay: phage ELISA on captured anti-CD28 Fab; competitor CD28 antigen pre-incubated in the wells;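 note: clonal phage supernatants added to wells preloaded with CD28 antigen in blocking buffer, control wells buffer only, bound phage read via HRP-linked anti-M13 antibody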
Procedure: as §1, §2

[7] = molecular target: T3, Anti-CD28 Fab (SEQ ID NOs: 696, 697); assay: phage ELISA; biotinylated anti-CD28 Fab on neutravidin plates, bound phage detected with anti-M13 HRP
T3 construct: Biotinylated and captured on neutravidin coated plates in the phage ELISA
T3 sequence (VH, as listed by the source, chain 1 of 2): as the sequence (VH, as listed by the source, chain 1 of 2) above
T3 sequence (VL, as listed by the source, chain 2 of 2): as the sequence (VL, as listed by the source, chain 2 of 2) above
Procedure: as §1, §2

[8] = molecular target: T3, Anti-CD28 Fab (SEQ ID NOs: 696, 697); assay: phage ELISA on anti-CD28 Fab plates; competitor CD28 antigen pre-incubated in the wells
Procedure: as §1, §2

T1 sequence (VH, as listed by the source, chain 1 of 2): as the sequence (VH, as listed by the source, chain 1 of 2) above
T1 sequence (VL, as listed by the source, chain 2 of 2): as the sequence (VL, as listed by the source, chain 2 of 2) above

| Binder | Phage binding ELISA, Anti-CD28 Fab (SEQ ID NOs: 696, 697) signal [1] | Phage binding ELISA, Anti-CD28 Fab signal in the presence of CD28 [2] | Anti-CD28 Fab signal in the presence of CD28 (phage binding ELISA) [3] | Anti-CD28 Fab signal (phage binding ELISA) [4] | Phage binding ELISA, Anti-CD28 Fab signal [5] | Phage binding ELISA, Anti-CD28 Fab signal in the presence of CD28 [6] | also measured |
| --- | --- | --- | --- | --- | --- | --- | --- |
| YCMGHSHEHIWKCL (also called Peptide-97) [Phage-476] | 0.87 | 0.07 | – | – | – | – | – |
| B1 | – | – | 0.17 | 2.44 | – | – | – |
| B2 | – | – | 0.12 | 2.39 | – | – | – |
| B3 | – | – | – | – | 2.39 | 0.09 | – |
| B4 | – | – | – | – | 2.38 | 0.08 | – |
| YCDGHEPQYMLKCL [Phage-540] | – | – | – | – | – | – | Phage binding ELISA, Anti-CD28 Fab signal [7]: 2.32; Phage binding ELISA, Anti-CD28 Fab signal in the presence of CD28 [8]: 0.12 |
| B5 | – | – | – | – | 2.38 | 0.11 | – |
| B6 | – | – | – | – | 2.37 | 0.13 | – |
| B7 | – | – | 0.14 | 2.41 | – | – | – |
| B8 | – | – | 0.12 | 2.4 | – | – | – |
| B9 | – | – | 0.1 | 2.44 | – | – | – |
| B10 | – | – | 0.13 | 2.43 | – | – | – |
| B11 | – | – | 0.11 | 2.47 | – | – | – |
| B12 | – | – | 0.09 | 2.45 | – | – | – |
| B13 | – | – | – | – | 2.37 | 0.1 | – |
| YCAGHTEEHYVKCM (also called Peptide-96) [Phage-475] | 0.62 | 0.07 | – | – | – | – | – |
| B14 | – | – | 0.12 | 2.42 | – | – | – |
| B15 | – | – | – | – | 2.36 | 0.12 | – |
| B16 | – | – | – | – | 2.37 | 0.11 | – |
| YCEGHLPEYIEKCL (also called Peptide-120) [Phage-481] | 2.06 | 0.08 | – | – | – | – | – |

| Binder | Phage binding ELISA, Anti-CD28 Fab (SEQ ID NOs: 696, 697) signal [1] | Phage binding ELISA, Anti-CD28 Fab signal in the presence of CD28 [2] | Anti-CD28 Fab signal in the presence of CD28 (phage binding ELISA) [3] | Anti-CD28 Fab signal (phage binding ELISA) [4] | Phage binding ELISA, Anti-CD28 Fab signal [5] | Phage binding ELISA, Anti-CD28 Fab signal in the presence of CD28 [6] | also measured |
| --- | --- | --- | --- | --- | --- | --- | --- |
| B17 | – | – | – | – | 2.38 | 0.14 | – |
| YCAGHSHEYLAKCE (also called Peptide-98) [Phage-477] | 0.86 | 0.06 | – | – | – | – | – |
| YCEGHEGIYFWKCL [Phage-480] | 2.07 | 0.06 | – | – | – | – | – |
| YCEGHSPEYILKCL [Phage-478] | 1.75 | 0.06 | – | – | – | – | – |
| YCEGHRPEYILKCL [Phage-479] | 1.27 | 0.06 | – | – | – | – | – |
| B18 | – | – | 0.2 | 2.4 | – | – | – |
| B19 | – | – | – | – | 2.38 | 0.09 | – |
| YCEGHSPEYMSKCL [Phage-541] | – | – | – | – | – | – | Phage binding ELISA, Anti-CD28 Fab signal [7]: 2.31; Phage binding ELISA, Anti-CD28 Fab signal in the presence of CD28 [8]: 0.07 |
| YCAGHMPQYEVKCL (also called Peptide-95) [Phage-474] | 0.22 | 0.06 | – | – | – | – | – |
| B20 | – | – | – | – | 2.38 | 0.08 | – |
| B21 | – | – | – | – | 2.38 | 0.11 | – |
| B22 | – | – | 0.09 | 2.44 | – | – | – |
| YCEGHSQENIWKCL [Phage-485] | 1.41 | 0.07 | – | – | – | – | – |
| B23 | – | – | 0.08 | 2.41 | – | – | – |
| B24 | – | – | – | – | 2.39 | 0.08 | – |
| B25 | – | – | – | – | 2.37 | 0.07 | – |
| B26 | – | – | 0.17 | 2.41 | – | – | – |
| YCEGHAPEYIAKCL [Phage-482] | 2.15 | 0.09 | – | – | – | – | – |
| YCEGHAPEYIWKCL [Phage-484] | 1.63 | 0.07 | – | – | – | – | – |
| YCEGHAPEYIRKCL [Phage-483] | 1.63 | 0.08 | – | – | – | – | – |
